Laboratory results from US20150018233A1 (FRED HUTCHINSON CANCER RESEARCH CENTER, published 2015).

T1: M2 muscarinic acetylcholine receptor (M2AchR), rat (rat, UniProt P10980 1-466)
T1 sequence (looked up): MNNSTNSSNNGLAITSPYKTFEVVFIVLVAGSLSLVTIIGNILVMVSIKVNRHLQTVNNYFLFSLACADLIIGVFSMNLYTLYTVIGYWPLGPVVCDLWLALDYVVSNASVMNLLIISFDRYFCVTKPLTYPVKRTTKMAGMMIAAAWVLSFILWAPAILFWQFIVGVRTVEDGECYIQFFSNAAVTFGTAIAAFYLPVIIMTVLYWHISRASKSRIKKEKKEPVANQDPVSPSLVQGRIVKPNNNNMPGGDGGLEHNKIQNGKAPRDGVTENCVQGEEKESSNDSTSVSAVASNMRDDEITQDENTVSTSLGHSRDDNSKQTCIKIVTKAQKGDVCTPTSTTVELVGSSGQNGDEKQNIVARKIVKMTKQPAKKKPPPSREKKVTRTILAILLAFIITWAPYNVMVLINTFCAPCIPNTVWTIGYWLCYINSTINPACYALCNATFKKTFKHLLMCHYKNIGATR

B1: Gαs-Gα15-13 (SEQ ID NO: 7) (other)
chain: MGCLGNSKTEDQRNEEKAQREANKKIEKQLQKDKQVYRATHRLLLLGAGESGKSTIVKQMRILHVNGFNGEGGEEDVPDYASNSDGEKATKVQDIKNNLKEAIETIVAAMSNLVPPVELANPENQFRVDYILSVMNVPNFDFPPEFYEHAKALWEDEGVRACYERSNEYQLIDCAQYFLDKIDVIKQADYVPSDQDLLRCRVLTSGIFETKFQVDKVNFHMFDVGGQRDERRKWIQCFNDVTAIIFVVASSSYNMVIREDNQTNRLQEALNLFKSIWNNRWLRTISVILFLNKQDLLAEKVLAGKSKIEDYFPEFARYTTPEDATPEPGEDPRVTRAKYFIRDEFLRISTASGDGRHYCYPHFTCAVDTENIRRVFNDCRDSVLARYLDEINLL
B2: Gαs-Gαi-13 (SEQ ID NO: 5) (other)
chain: MGCLGNSKTEDQRNEEKAQREANKKIEKQLQKDKQVYRATHRLLLLGAGESGKSTIVKQMRILHVNGFNGEGGEEDVPDYASNSDGEKATKVQDIKNNLKEAIETIVAAMSNLVPPVELANPENQFRVDYILSVMNVPNFDFPPEFYEHAKALWEDEGVRACYERSNEYQLIDCAQYFLDKIDVIKQADYVPSDQDLLRCRVLTSGIFETKFQVDKVNFHMFDVGGQRDERRKWIQCFNDVTAIIFVVASSSYNMVIREDNQTNRLQEALNLFKSIWNNRWLRTISVILFLNKQDLLAEKVLAGKSKIEDYFPEFARYTTPEDATPEPGEDPRVTRAKYFIRDEFLRISTASGDGRHYCYPHFTCAVDTENIRRVFNDCRDVIIKNNLKDCGLF
B3: Gαs-Gαz-13 (SEQ ID NO: 6) (other)
chain: MGCLGNSKTEDQRNEEKAQREANKKIEKQLQKDKQVYRATHRLLLLGAGESGKSTIVKQMRILHVNGFNGEGGEEDVPDYASNSDGEKATKVQDIKNNLKEAIETIVAAMSNLVPPVELANPENQFRVDYILSVMNVPNFDFPPEFYEHAKALWEDEGVRACYERSNEYQLIDCAQYFLDKIDVIKQADYVPSDQDLLRCRVLTSGIFETKFQVDKVNFHMFDVGGQRDERRKWIQCFNDVTAIIFVVASSSYNMVIREDNQTNRLQEALNLFKSIWNNRWLRTISVILFLNKQDLLAEKVLAGKSKIEDYFPEFARYTTPEDATPEPGEDPRVTRAKYFIRDEFLRISTASGDGRHYCYPHFTCAVDTENIRRVFNDCRDVIIQNNLKYIGLC

Legend:
[1] = molecular target: T1, M2 muscarinic acetylcholine receptor …; test: cell-based or functional assay
[2] = molecular target: sweet receptor heterodimer (T1 R2/T1 R3); test: cell-based or functional assay

Binder | increase in SEAP activity in response to the 10 uM acetylcholine ligand [1] | increase in SEAP activity in response to 10 uM acetylcholine (CRE-SEAP reporter, HEK-293) [1] | increase in SEAP activity, cells transiently expressing the chimera (10 uM acetylcholine) [1] | increase in SEAP activity (5 mM saccharin) [2]
B1 | ~2 fold | – | – | –
B2 | – | 10 fold | ~10 fold | ~2 fold
B3 | ~2 fold | – | – | –
